The data set deals with Escherichia coli TOP10. Briefly: shrunken log2 fold change of peptide-encoding DNA abundance (4.5 h post-induction vs induction); higher = less antimicrobial activity (less host growth inhibition). The conditions noted are these: time post-induction: 4.5 h; library: site-saturation at positions 5, 18, 19, 20.
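Further: peptides expressed intracellularly from a pBAD plasmid library in pooled LB shake-flask culture, induced with 0.3% L-arabinose, DNA abundance read by NGS, three biological replicates, DESeq2 with apeglm shrinkage.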

As for RRIRLRPPRLPRPRPRPELYPRP, the “shrunken log2 fold change” value is -0.0383.

Regarding RRIRARPPRLPRPRPRPNDNPRP, the “shrunken log2 fold change” value was -0.344.

Consider RRIRFRPPRLPRPRPRPCQMPRP, for which the “shrunken log2 fold change” value is -0.981.

Take RRIRPRPPRLPRPRPRPKTEPRP: the “shrunken log2 fold change” value was -0.217.

RRIRCRPPRLPRPRPRPSFIPRP: the “shrunken log2 fold change” value was -0.811.

Turning to RRIRPRPPRLPRPRPRPGRLPRP, the “shrunken log2 fold change” value was -0.0937.

Regarding RRIRHRPPRLPRPRPRPKWPPRP, the “shrunken log2 fold change” value is 0.0116.

Turning to RRIRNRPPRLPRPRPRPLACPRP, the “shrunken log2 fold change” value came out at 0.118.

With RRIRQRPPRLPRPRPRPRTYPRP, the “shrunken log2 fold change” value was -0.049.

With RRIRGRPPRLPRPRPRPEAFPRP, the “shrunken log2 fold change” value worked out at 1.86.

On to RRIRIRPPRLPRPRPRPAKEPRP, for which the “shrunken log2 fold change” value was -0.374.

As to RRIRKRPPRLPRPRPRPQQQPRP, the “shrunken log2 fold change” value was -0.0131.

Turning to RRIRARPPRLPRPRPRPNGHPRP, the “shrunken log2 fold change” value is 0.53.

On to RRIRYRPPRLPRPRPRPSQVPRP, for which the “shrunken log2 fold change” value is -0.518.

Take RRIRHRPPRLPRPRPRPLQEPRP: the “shrunken log2 fold change” value is -0.331.

For the sequence RRIRVRPPRLPRPRPRPAQSPRP, the “shrunken log2 fold change” value turned out to be 0.107.

Turning to RRIRYRPPRLPRPRPRPIFGPRP, the “shrunken log2 fold change” value was -0.281.

For RRIRWRPPRLPRPRPRPGGRPRP, the “shrunken log2 fold change” value was determined as 0.418.

In the case of RRIRWRPPRLPRPRPRPGECPRP, the “shrunken log2 fold change” value stood at 0.00474.

With RRIRARPPRLPRPRPRPRRNPRP, the “shrunken log2 fold change” value was determined as 0.308.

With RRIRWRPPRLPRPRPRPMRTPRP, the “shrunken log2 fold change” value worked out at 0.273.

As for RRIRKRPPRLPRPRPRPGTYPRP, the “shrunken log2 fold change” value is -0.0508.

For the sequence RRIRGRPPRLPRPRPRPEFKPRP, the “shrunken log2 fold change” value was found to be 0.741.

Consider RRIRPRPPRLPRPRPRPSVRPRP, for which the “shrunken log2 fold change” value came out at 0.129.

On to RRIRARPPRLPRPRPRPVFNPRP, for which the “shrunken log2 fold change” value was -0.297.

As for RRIRWRPPRLPRPRPRPNNAPRP, the “shrunken log2 fold change” value was -0.295.

For the sequence RRIRTRPPRLPRPRPRPWNFPRP, the “shrunken log2 fold change” value was -0.0511.

Consider RRIRDRPPRLPRPRPRPVCAPRP, for which the “shrunken log2 fold change” value is 1.12.

Turning to RRIRKRPPRLPRPRPRPKVSPRP, the “shrunken log2 fold change” value is -0.0412.

For RRIRGRPPRLPRPRPRPQGEPRP, the “shrunken log2 fold change” value worked out at 0.327.

Turning to RRIRVRPPRLPRPRPRPIHCPRP, the “shrunken log2 fold change” value came to 0.0605.

Consider RRIRARPPRLPRPRPRPFTMPRP, for which the “shrunken log2 fold change” value is -0.378.

As to RRIRMRPPRLPRPRPRPGSCPRP, the “shrunken log2 fold change” value came to 0.29.

Consider RRIRWRPPRLPRPRPRPIPKPRP, for which the “shrunken log2 fold change” value came out at 0.102.

Take RRIRWRPPRLPRPRPRPSREPRP: the “shrunken log2 fold change” value worked out at 0.807.

In the case of RRIRHRPPRLPRPRPRPPAIPRP, the “shrunken log2 fold change” value is 0.0959.

On to RRIRTRPPRLPRPRPRPPGYPRP, for which the “shrunken log2 fold change” value came to 0.0573.

For the sequence RRIRCRPPRLPRPRPRPEYTPRP, the “shrunken log2 fold change” value is -0.139.

On to RRIRSRPPRLPRPRPRPHHPPRP, for which the “shrunken log2 fold change” value is -0.369.

For RRIRRRPPRLPRPRPRPAQWPRP, the “shrunken log2 fold change” value was found to be 0.912.

Consider RRIRDRPPRLPRPRPRPTNVPRP, for which the “shrunken log2 fold change” value was -0.138.

In the case of RRIRNRPPRLPRPRPRPSTRPRP, the “shrunken log2 fold change” value was found to be 0.326.

RRIRMRPPRLPRPRPRPQHTPRP: the “shrunken log2 fold change” value is -0.0951.

For the sequence RRIRIRPPRLPRPRPRPHMMPRP, the “shrunken log2 fold change” value was -1.37.

Consider RRIRARPPRLPRPRPRPVAPPRP, for which the “shrunken log2 fold change” value stood at 0.612.

On to RRIRARPPRLPRPRPRPTNGPRP, for which the “shrunken log2 fold change” value is -0.0688.

With RRIRSRPPRLPRPRPRPVCQPRP, the “shrunken log2 fold change” value is -0.569.

As for RRIRGRPPRLPRPRPRPHAYPRP, the “shrunken log2 fold change” value stood at 2.11.

With RRIRWRPPRLPRPRPRPAQWPRP, the “shrunken log2 fold change” value was determined as 0.287.

With RRIRFRPPRLPRPRPRPKCYPRP, the “shrunken log2 fold change” value is -0.233.

Regarding RRIRQRPPRLPRPRPRPMISPRP, the “shrunken log2 fold change” value was -0.0269.

Turning to RRIRWRPPRLPRPRPRPGEAPRP, the “shrunken log2 fold change” value was 0.799.

As for RRIRIRPPRLPRPRPRPGVDPRP, the “shrunken log2 fold change” value worked out at 0.0326.

In the case of RRIRQRPPRLPRPRPRPQFYPRP, the “shrunken log2 fold change” value is -0.407.

Turning to RRIRNRPPRLPRPRPRPQPYPRP, the “shrunken log2 fold change” value was -0.0389.

For the sequence RRIRNRPPRLPRPRPRPSEPPRP, the “shrunken log2 fold change” value is -0.0146.

On to RRIRFRPPRLPRPRPRPKPDPRP, for which the “shrunken log2 fold change” value was 0.463.

In the case of RRIRNRPPRLPRPRPRPFFLPRP, the “shrunken log2 fold change” value is -0.255.

On to RRIRDRPPRLPRPRPRPYTSPRP, for which the “shrunken log2 fold change” value came out at 0.0448.

In the case of RRIRIRPPRLPRPRPRPSNCPRP, the “shrunken log2 fold change” value was -0.24.

RRIRWRPPRLPRPRPRPAFDPRP: the “shrunken log2 fold change” value turned out to be 0.397.

Regarding RRIRIRPPRLPRPRPRPGTPPRP, the “shrunken log2 fold change” value was -0.0727.

Consider RRIRHRPPRLPRPRPRPAKQPRP, for which the “shrunken log2 fold change” value was found to be 0.307.

Regarding RRIRTRPPRLPRPRPRPFWIPRP, the “shrunken log2 fold change” value was -0.34.

For RRIRPRPPRLPRPRPRPLFQPRP, the “shrunken log2 fold change” value is -0.0669.

For the sequence RRIRIRPPRLPRPRPRPHTNPRP, the “shrunken log2 fold change” value was -0.906.

As to RRIRVRPPRLPRPRPRPIGRPRP, the “shrunken log2 fold change” value is -0.0725.

Consider RRIRRRPPRLPRPRPRPKWCPRP, for which the “shrunken log2 fold change” value was found to be 0.431.

In the case of RRIRMRPPRLPRPRPRPRWSPRP, the “shrunken log2 fold change” value came to 0.803.

As to RRIRMRPPRLPRPRPRPFMPPRP, the “shrunken log2 fold change” value is -0.127.

Take RRIRSRPPRLPRPRPRPQVNPRP: the “shrunken log2 fold change” value was -0.00752.

With RRIRNRPPRLPRPRPRPSNLPRP, the “shrunken log2 fold change” value was -0.457.

On to RRIRVRPPRLPRPRPRPHIYPRP, for which the “shrunken log2 fold change” value is -0.519.

For RRIRFRPPRLPRPRPRPWVKPRP, the “shrunken log2 fold change” value is -0.00968.

For the sequence RRIRSRPPRLPRPRPRPGSTPRP, the “shrunken log2 fold change” value amounted to 0.0972.

Turning to RRIRDRPPRLPRPRPRPVESPRP, the “shrunken log2 fold change” value was -0.373.

As for RRIRSRPPRLPRPRPRPPDTPRP, the “shrunken log2 fold change” value is 0.237.

With RRIRCRPPRLPRPRPRPCRYPRP, the “shrunken log2 fold change” value is -0.446.

As for RRIRYRPPRLPRPRPRPRNEPRP, the “shrunken log2 fold change” value is -0.0133.

Take RRIRSRPPRLPRPRPRPLLVPRP: the “shrunken log2 fold change” value was determined as 0.0795.

As to RRIRQRPPRLPRPRPRPQEDPRP, the “shrunken log2 fold change” value was -0.0264.

As for RRIRLRPPRLPRPRPRPRYKPRP, the “shrunken log2 fold change” value was -0.225.

As to RRIRSRPPRLPRPRPRPKLKPRP, the “shrunken log2 fold change” value turned out to be 0.149.

For RRIRKRPPRLPRPRPRPSEPPRP, the “shrunken log2 fold change” value turned out to be 0.249.

In the case of RRIRYRPPRLPRPRPRPQSGPRP, the “shrunken log2 fold change” value is -0.223.

As to RRIRNRPPRLPRPRPRPWIFPRP, the “shrunken log2 fold change” value is -0.201.

Turning to RRIRDRPPRLPRPRPRPDVVPRP, the “shrunken log2 fold change” value was -0.0108.

As to RRIRGRPPRLPRPRPRPNADPRP, the “shrunken log2 fold change” value was 2.38.

As to RRIRQRPPRLPRPRPRPLQHPRP, the “shrunken log2 fold change” value is 0.164.

Turning to RRIRKRPPRLPRPRPRPVPNPRP, the “shrunken log2 fold change” value is -0.00404.

On to RRIRHRPPRLPRPRPRPRKHPRP, for which the “shrunken log2 fold change” value is -0.113.

These data come from the supplement of paper PMC9112550, “Optimization of the antimicrobial peptide Bac7 by deep mutational scanning” (BMC Biology, 2022).
